{"source": "paper doi:10.1101/2025.09.16.670041", "about": "(bioRxiv, 2025)", "molecules": {"B1": {"name": "biotinylated full-length MBP-fused UBE3A protein (enzyme, human, UniProt Q05086-2 1-852, looked up)", "chain": "MKRAAAKHLIERYYHQLTEGCGNEACTNEFCASCPTFLRMDNNAAAIKALELYKINAKLCDPHPSKKGASSAYLENSKGAPNNSCSEIKMNKKGARIDFKDVTYLTEEKVYEILELCREREDYSPLIRVIGRVFSSAEALVQSFRKVKQHTKEELKSLQAKDEDKDEDEKEKAACSAAAMEEDSEASSSRIGDSSQGDNNLQKLGPDDVSVDIDAIRRVYTRLLSNEKIETAFLNALVYLSPNVECDLTYHNVYSRDPNYLNLFIIVMENRNLHSPEYLEMALPLFCKAMSKLPLAAQGKLIRLWSKYNADQIRRMMETFQQLITYKVISNEFNSRNLVNDDDAIVAASKCLKMVYYANVVGGEVDTNHNEEDDEEPIPESSELTLQELLGEERRNKKGPRVDPLETELGVKTLDCRKPLIPFEEFINEPLNEVLEMDKDYTFFKVETENKFSFMTCPFILNAVTKNLGLYYDNRIRMYSERRITVLYSLVQGQQLNPYLRLKVRRDHIIDDALVRLEMIAMENPADLKKQLYVEFEGEQGVDEGGVSKEFFQLVVEEIFNPDIGMFTYDESTKLFWFNPSSFETEGQFTLIGIVLGLAIYNNCILDVHFPMVVYRKLMGKKGTFRDLGDSHPVLYQSLKDLLEYEGNVEDDMMITFQISQTDLFGNPMMYDLKENGDKIPITNENRKEFVNLYSDYILNKSVEKQFKAFRRGFHMVTNESPLKYLFRPEEIELLICGSRNLDFQALEETTEYDGGYTRDSVLIREFWEIVHSFTDEQKRLFLQFTTGTDRAPVGGLGKLKMIIAKNGPDTERLPTSHTCFNVLLLPEYSSKEKLKERLLKAITYAKGFGML", "modifications": "biotin on the AviTag (in vivo biotinylation)"}, "B2": {"name": "biotinylated MBP-fused HERC2 RLD2 domain (residues 2941-3342) (domain or fragment, human, UniProt O95714 2941-3342, looked up)", "chain": "GSLIRKKAAGLESAATIRTKVFVWGLNDKDQLGGLKGSKIKVPSFSETLSALNVVQVAGGSKSLFAVTVEGKVYACGEATNGRLGLGISSGTVPIPRQITALSSYVVKKVAVHSGGRHATALTVDGKVFSWGEGDDGKLGHFSRMNCDKPRLIEALKTKRIRDIACGSSHSAALTSSGELYTWGLGEYGRLGHGDNTTQLKPKMVKVLLGHRVIQVACGSRDAQTLALTDEGLVFSWGDGDFGKLGRGGSEGCNIPQNIERLNGQGVCQIECGAQFSLALTKSGVVWTWGKGDYFRLGHGSDVHVRKPQVVEGLRGKKIVHVAVGALHCLAVTDSGQVYAWGDNDHGQQGNGTTTVNRKPTLVQGLEGQKITRVACGSSHSVAWTTVDVATPSVHEPVLFQT", "modifications": "biotin on the AviTag (in vivo biotinylation)"}, "B3": {"name": "UBE3A peptide residues 150-200 (peptide, UniProt Q05086-2 150-200, looked up)", "peptide": "HTKEELKSLQAKDEDKDEDEKEKAACSAAAMEEDSEASSSRIGDSSQGDNN"}}, "key": {"[1]": {"target": "biotinylated MBP-fused HERC2 RLD2 domain (residues 2941-3342) (human) (UniProt O95714)", "assay": "native holdup assay"}, "[2]": {"target": "T1, endogenous full-length HERC2 (human (endogenous in SH-SY5Y), UniProt O95714 1-4834)", "T1 sequence (O95714 whole entry)": "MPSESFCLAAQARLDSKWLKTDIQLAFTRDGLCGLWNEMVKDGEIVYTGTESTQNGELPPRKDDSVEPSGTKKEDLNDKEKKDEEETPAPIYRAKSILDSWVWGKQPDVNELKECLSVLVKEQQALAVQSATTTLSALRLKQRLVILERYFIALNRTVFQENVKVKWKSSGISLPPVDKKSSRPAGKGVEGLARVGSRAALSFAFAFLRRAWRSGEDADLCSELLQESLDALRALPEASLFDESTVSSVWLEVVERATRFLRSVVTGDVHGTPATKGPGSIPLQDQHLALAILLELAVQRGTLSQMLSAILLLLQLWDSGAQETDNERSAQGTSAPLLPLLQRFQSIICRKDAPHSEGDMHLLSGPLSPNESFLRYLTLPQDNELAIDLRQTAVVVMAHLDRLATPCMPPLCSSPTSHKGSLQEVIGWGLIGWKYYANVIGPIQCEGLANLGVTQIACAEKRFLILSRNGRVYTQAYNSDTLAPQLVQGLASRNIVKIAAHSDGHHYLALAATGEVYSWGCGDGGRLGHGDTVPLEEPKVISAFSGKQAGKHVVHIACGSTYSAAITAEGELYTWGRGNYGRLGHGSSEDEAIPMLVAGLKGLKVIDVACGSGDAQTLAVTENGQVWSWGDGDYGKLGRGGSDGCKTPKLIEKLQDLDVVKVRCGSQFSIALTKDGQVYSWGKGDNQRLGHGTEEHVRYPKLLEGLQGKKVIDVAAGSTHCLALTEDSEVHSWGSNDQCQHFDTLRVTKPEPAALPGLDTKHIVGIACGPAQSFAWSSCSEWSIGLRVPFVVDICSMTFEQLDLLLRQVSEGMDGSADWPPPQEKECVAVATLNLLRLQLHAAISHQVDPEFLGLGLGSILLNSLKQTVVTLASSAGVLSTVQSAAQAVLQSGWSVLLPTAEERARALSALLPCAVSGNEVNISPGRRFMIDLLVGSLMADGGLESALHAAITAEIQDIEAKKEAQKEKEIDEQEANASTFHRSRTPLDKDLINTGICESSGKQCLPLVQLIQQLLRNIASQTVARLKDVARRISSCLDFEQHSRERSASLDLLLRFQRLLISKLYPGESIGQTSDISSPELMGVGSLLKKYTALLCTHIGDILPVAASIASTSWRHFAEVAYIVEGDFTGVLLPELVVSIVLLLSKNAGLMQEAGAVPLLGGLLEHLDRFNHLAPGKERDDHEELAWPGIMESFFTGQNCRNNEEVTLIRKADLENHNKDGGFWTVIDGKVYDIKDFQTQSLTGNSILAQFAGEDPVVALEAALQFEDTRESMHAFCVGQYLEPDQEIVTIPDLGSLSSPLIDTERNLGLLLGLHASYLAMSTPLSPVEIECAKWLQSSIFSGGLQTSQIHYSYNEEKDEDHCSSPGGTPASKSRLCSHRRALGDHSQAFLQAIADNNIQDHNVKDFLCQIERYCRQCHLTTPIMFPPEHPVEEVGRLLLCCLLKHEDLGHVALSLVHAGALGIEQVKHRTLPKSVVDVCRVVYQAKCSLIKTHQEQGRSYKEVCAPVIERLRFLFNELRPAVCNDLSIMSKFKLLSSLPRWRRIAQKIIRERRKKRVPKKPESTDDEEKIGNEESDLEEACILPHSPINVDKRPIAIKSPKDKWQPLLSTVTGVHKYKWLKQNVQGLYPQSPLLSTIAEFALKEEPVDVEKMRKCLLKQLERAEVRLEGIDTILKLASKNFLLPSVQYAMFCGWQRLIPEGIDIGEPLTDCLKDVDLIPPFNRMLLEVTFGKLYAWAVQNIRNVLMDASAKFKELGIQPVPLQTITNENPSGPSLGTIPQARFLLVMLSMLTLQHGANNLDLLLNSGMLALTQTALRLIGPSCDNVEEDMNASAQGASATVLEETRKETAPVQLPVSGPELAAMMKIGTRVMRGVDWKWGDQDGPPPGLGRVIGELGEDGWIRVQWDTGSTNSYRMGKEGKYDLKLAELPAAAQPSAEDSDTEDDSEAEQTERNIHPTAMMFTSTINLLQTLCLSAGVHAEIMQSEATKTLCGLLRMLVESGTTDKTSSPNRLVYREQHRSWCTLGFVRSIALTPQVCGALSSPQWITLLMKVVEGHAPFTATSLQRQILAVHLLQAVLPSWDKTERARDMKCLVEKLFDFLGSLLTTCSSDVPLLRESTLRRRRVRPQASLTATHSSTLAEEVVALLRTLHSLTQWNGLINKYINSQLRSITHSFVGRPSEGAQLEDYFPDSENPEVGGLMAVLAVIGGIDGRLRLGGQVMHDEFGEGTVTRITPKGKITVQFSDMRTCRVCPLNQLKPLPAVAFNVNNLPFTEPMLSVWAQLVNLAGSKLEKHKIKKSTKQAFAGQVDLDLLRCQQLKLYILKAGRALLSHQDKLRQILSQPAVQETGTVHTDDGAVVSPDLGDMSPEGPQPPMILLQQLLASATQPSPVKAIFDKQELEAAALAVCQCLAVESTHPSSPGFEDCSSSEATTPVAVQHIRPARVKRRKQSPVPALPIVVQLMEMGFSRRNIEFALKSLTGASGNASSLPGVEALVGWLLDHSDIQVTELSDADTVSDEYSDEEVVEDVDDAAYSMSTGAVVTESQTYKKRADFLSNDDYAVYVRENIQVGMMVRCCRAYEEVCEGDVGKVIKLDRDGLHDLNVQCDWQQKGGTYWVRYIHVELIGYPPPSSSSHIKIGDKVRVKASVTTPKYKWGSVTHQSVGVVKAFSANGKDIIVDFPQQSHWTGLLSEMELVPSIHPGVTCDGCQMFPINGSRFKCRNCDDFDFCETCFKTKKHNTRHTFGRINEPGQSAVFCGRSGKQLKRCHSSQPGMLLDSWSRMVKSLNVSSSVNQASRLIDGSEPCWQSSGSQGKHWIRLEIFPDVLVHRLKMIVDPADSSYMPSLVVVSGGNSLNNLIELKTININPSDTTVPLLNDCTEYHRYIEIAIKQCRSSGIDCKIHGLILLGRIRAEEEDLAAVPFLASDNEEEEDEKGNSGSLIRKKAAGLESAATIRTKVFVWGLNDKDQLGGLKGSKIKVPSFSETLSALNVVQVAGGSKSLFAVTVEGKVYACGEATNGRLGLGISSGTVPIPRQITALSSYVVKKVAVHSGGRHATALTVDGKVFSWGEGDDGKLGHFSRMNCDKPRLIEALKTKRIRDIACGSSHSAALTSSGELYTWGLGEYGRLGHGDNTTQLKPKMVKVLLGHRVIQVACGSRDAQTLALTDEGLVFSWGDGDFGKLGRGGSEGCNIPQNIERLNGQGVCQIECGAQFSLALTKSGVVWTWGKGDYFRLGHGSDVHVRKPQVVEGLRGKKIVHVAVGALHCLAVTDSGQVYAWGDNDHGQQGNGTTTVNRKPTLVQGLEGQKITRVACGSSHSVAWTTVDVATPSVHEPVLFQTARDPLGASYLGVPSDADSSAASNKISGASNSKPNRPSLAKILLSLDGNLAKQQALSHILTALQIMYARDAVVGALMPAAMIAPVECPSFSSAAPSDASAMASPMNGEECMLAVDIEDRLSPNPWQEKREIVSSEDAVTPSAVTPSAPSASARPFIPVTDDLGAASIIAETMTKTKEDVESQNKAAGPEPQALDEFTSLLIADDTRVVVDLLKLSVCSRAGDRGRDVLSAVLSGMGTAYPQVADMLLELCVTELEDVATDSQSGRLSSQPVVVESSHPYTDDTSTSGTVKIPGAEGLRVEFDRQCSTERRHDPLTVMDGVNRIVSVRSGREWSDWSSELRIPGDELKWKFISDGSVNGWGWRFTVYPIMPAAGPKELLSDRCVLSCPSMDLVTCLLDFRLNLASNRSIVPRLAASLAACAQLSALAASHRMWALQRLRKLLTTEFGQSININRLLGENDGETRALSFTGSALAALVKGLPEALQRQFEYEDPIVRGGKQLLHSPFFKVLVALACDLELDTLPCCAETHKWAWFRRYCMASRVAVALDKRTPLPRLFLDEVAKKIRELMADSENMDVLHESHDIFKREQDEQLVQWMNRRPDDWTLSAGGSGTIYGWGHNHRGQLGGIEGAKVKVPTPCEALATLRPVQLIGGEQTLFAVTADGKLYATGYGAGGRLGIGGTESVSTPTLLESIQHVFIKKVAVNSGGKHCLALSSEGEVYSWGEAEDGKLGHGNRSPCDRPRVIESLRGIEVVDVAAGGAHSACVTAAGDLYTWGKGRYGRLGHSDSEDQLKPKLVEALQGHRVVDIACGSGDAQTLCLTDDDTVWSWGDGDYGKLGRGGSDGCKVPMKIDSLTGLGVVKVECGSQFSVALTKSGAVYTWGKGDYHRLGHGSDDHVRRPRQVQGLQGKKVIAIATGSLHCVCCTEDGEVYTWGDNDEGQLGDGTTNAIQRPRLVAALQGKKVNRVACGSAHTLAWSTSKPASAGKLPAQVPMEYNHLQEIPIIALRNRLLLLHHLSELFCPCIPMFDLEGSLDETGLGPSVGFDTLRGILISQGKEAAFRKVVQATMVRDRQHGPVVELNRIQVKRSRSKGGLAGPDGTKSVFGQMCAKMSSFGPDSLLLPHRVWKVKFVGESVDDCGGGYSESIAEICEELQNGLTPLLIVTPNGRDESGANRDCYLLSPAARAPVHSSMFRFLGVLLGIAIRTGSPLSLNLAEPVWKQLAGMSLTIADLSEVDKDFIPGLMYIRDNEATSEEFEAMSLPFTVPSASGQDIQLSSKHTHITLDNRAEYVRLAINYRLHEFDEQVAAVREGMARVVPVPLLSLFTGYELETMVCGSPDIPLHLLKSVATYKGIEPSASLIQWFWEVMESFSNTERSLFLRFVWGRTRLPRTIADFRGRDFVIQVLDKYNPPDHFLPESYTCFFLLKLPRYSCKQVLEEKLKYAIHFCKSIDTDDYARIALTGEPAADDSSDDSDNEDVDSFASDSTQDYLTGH", "assay": "native holdup assay"}, "[3]": {"target": "endogenous full-length PCM1 (human (endogenous in SH-SY5Y), UniProt Q15154 1-2024)", "assay": "native holdup assay"}, "[4]": {"target": "endogenous full-length UBE3A from SH-SY5Y cells (human (endogenous in SH-SY5Y), UniProt Q05086 1-875)", "assay": "native holdup assay"}, "[5]": {"target": "endogenous full-length DOCK10 (human (endogenous in SH-SY5Y), UniProt Q96BY6 1-2186)", "assay": "native holdup assay"}, "[6]": {"target": "T2, endogenous full-length ARID4A (human (endogenous in SH-SY5Y), UniProt P29374 1-1257)", "T2 sequence (looked up)": "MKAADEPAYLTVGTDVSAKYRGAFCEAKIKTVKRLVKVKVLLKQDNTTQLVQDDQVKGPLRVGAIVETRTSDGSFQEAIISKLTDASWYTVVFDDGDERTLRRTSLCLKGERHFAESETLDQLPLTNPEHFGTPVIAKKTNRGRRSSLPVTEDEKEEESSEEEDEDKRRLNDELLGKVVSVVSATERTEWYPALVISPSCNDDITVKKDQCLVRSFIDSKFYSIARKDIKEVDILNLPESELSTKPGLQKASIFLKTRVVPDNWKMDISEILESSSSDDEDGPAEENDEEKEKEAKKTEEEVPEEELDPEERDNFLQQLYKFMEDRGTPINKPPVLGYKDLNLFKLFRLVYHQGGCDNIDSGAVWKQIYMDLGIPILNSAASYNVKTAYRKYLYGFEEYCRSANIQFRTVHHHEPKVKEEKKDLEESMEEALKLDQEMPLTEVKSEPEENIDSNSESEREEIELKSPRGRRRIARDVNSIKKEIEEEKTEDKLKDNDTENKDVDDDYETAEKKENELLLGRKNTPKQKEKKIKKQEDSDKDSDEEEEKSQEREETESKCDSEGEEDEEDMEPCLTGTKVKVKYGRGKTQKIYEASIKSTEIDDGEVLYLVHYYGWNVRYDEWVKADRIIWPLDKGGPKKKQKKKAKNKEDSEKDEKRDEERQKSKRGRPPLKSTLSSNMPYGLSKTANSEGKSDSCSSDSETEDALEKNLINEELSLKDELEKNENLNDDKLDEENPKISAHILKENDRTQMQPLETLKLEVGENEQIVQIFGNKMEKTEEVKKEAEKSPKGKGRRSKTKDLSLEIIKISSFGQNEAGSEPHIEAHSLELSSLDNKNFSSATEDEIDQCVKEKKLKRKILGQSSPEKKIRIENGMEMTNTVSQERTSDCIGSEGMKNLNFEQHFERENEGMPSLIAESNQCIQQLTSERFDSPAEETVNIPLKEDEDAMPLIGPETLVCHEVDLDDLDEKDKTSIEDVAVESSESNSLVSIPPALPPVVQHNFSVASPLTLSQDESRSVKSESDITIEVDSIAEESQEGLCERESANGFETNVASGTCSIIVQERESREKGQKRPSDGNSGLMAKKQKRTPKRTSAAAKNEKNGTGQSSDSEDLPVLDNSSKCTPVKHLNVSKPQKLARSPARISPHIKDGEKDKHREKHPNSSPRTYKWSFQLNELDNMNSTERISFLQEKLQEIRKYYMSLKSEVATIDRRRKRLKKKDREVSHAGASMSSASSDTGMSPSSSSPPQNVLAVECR", "assay": "native holdup assay"}, "[7]": {"target": "T3, endogenous full-length UBE3A from mouse brain (mouse (endogenous in mouse brain), UniProt O08759 1-870)", "T3 sequence (looked up)": "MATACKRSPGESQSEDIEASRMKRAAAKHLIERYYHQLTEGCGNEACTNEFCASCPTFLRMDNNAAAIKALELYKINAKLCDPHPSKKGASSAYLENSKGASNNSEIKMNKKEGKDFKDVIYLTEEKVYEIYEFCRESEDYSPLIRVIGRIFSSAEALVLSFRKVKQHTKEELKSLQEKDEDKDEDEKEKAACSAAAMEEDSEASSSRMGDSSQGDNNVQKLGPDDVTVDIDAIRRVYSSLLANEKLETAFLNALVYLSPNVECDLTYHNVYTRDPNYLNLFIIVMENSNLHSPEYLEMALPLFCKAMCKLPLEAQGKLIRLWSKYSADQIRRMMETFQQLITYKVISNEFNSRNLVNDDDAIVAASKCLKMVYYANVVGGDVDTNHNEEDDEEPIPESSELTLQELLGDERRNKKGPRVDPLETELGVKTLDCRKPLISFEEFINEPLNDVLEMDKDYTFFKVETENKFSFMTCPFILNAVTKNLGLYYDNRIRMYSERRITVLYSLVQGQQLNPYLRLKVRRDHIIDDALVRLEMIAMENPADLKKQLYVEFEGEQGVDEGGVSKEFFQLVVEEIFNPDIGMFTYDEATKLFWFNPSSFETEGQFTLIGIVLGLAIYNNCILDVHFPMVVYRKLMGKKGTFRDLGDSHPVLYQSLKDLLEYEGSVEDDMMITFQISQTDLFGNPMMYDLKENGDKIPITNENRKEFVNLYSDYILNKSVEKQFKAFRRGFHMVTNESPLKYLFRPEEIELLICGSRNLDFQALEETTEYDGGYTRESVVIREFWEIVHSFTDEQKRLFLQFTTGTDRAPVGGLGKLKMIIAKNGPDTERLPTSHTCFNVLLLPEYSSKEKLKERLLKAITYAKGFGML", "assay": "native holdup assay"}, "[8]": {"target": "T1, endogenous full-length HERC2", "assay": "native holdup assay", "remark": "listed apart in the source"}, "[9]": {"target": "T4, HERC2 RLD2 domain (residues 2941-3342), untagged (human, UniProt O95714 2941-3342)", "T4 sequence (looked up)": "B2 chain", "assay": "fluorescence polarisation"}}, "note": "“And” between values parts separate entries of the source, which are not always exact repeats. Equal entries are not always repeated. Where two headings read alike, the source gives them in different places. No end group written: not given here. fluorescein = fluorescein (N-terminal fluorescent label on the UBE3A peptide)", "data": [{"molecule": "endogenous full-length UBE3A from zebrafish embryos (enzyme)", "values": [{"measurement": "Kd", "setting": "[1]", "value": 100, "unit": "nM"}]}, {"molecule": "endogenous full-length MYT1 (from UniProt Q01538 1-1121) (natural protein)", "values": [{"measurement": "Kd", "setting": "[1]", "value": "> 10000", "unit": "nM"}]}, {"molecule": "B1", "values": [{"measurement": "Kd", "setting": "[2]", "value": "560 ± 150", "unit": "nM"}]}, {"molecule": "B2", "values": [{"measurement": "Kd", "setting": "[3]", "value": "260 ± 40", "unit": "nM"}, {"measurement": "Kd", "setting": "[4]", "value": "< 100 nM and ~100 nM"}, {"measurement": "Kd", "setting": "[5]", "value": "2600 ± 500", "unit": "nM"}, {"measurement": "Kd", "setting": "[6]", "value": "< 100", "unit": "nM"}, {"measurement": "Kd", "setting": "[7]", "value": "~100", "unit": "nM"}]}, {"molecule": "HTKEELKSLQAKDEDKDEDEKEKAA (also: biotin, position not given here)", "note": "[biotinylated UBE3A peptide containing amino acids 150-174]", "values": [{"measurement": "Kd", "setting": "[8]", "value": "340 ± 90", "unit": "nM"}]}, {"molecule": "HTKEELKSLQAKDEDKDEDEKEKAA", "note": "[non-labeled UBE3A peptide residues 150-174]", "values": [{"measurement": "Kd", "setting": "[9]", "value": "< 100", "unit": "nM"}]}, {"molecule": "AKDEDKDEDEKEKAA (peptide, UniProt Q05086-2 160-174, looked up)", "note": "[UBE3A peptide residues 160-174]", "values": [{"measurement": "Kd", "setting": "[9]", "value": "6850 ± 290", "unit": "nM"}]}, {"molecule": "fluorescein-SLQAKDEDKDEDEKEKAA", "note": "[UBE3A 18-aa linked to fluorescein]", "values": [{"measurement": "binding result", "setting": "[9]", "value": "binds"}]}, {"molecule": "B3", "values": [{"measurement": "binding result", "setting": "[9]", "value": "binds"}]}]}
